Assay results published in patent publication US20240124917, “COMPOSITIONS AND METHODS FOR NUCLEIC ACID DETECTION BY LATERAL FLOW ASSAYS” (King Abdullah University of Science and Technology, published 2024).

B1: pstv-cnt-RB-ssDNA (ssDNA)
DNA: CAGATCAATTCTCTTAGGTTTACCCGCCAATATATCCTGTCAAACACTGATAGTTTTCACAGTAGGGTG

Assays:
[1] = target: T1, dCas9-dVirD2 fusion (dead Cas9, dead VirD2) (Streptococcus pyogenes / Agrobacterium …, UniProt Q99ZW2 SEQ:46-1413+1453-1899); assay: negative control, dead VirD2; anti-biotin western; conditions: label: 3' biotin
[2] = target: T2, Cas9-VirD2 fusion (wild-type SpCas9 to wild-type VirD2) (Streptococcus pyogenes / Agrobacterium …, UniProt Q99ZW2;P06668 Q99ZW2:1-1368,P06668:1-424); assay: covalent binding, anti-biotin western; 10 mM MgCl2, 37 C; conditions: tags: SpCas9-VirD2 fusion, expressed in E. coli BL21(DE3); label: 3' biotin
[3] = target: T3, VirD2-Cas9 fusion (wild-type VirD2 to wild-type SpCas9) (/ Streptococcus pyogenes, UniProt P06668;Q99ZW2 P06668:1-424,Q99ZW2:1-1368); assay: as above; conditions: tags: VirD2-SpCas9 fusion, expressed in E. coli BL21(DE3); label: 3' biotin
dCas9-VirD2 fusion [4] = target: T4, dCas9-VirD2 fusion (Streptococcus pyogenes / Agrobacterium …, UniProt Q99ZW2 SEQ:46-1413+1453-1899); assay: as above; conditions: label: 3' biotin
VirD2-dCas9 fusion [5] = target: T5, VirD2-dCas9 fusion (/ Streptococcus pyogenes, UniProt Q99ZW2 SEQ:46-492+510-1877); assay: as above; conditions: label: 3' biotin
[6] = target: T1, dCas9-dVirD2 fusion (dead Cas9, dead …); assay: EMSA; dead VirD2 does not bind RB probe
dCas9-VirD2 fusion [7] = target: T4, dCas9-VirD2 fusion; assay: EMSA; denaturing gel mobility shift; 10 mM MgCl2
VirD2-dCas9 fusion [8] = target: T5, VirD2-dCas9 fusion; assay: EMSA; denaturing gel mobility shift; 10 mM MgCl2
[9] = target: T2, Cas9-VirD2 fusion (wild-type SpCas9 to …); assay: EMSA; different shift pattern; 250 nM each, 10 mM MgCl2; conditions: tags: SpCas9-VirD2 fusion, expressed in E. coli BL21(DE3)
[10] = target: T3, VirD2-Cas9 fusion (wild-type VirD2 to …); assay: EMSA; denaturing gel mobility shift, Coomassie; 250 nM each, 10 mM MgCl2; conditions: tags: VirD2-SpCas9 fusion, expressed in E. coli BL21(DE3)

Binder	binding result [1]	binding result [2]	binding result [3]	binding result (dCas9-VirD2 fusion [4])	binding result (VirD2-dCas9 fusion [5])	binding result [6]	binding result (dCas9-VirD2 fusion [7])	binding result (VirD2-dCas9 fusion [8])	binding result [9]	binding result [10]
GTTTACCCGCCAATATATCCTGTCATTTTTTTTTT (ssDNA) [virD2 reporter-B-L]	no binding	binds	binds	binds	binds	–	–	–	–	–
B1	–	–	–	–	–	no binding	binds	binds	binds	binds
